Source: US20040005320A1 (ZymoGenetics, published 2004)

What was measured:
IL-20RA = target: T1, IL-20RA (human, UniProt Q9UHF4 30-553); assay: radiolabeled ligand binding on stably transfected BHK cells
T1 construct: Expressed alone on stably transfected BHK cells; also called Zcytor7; IL-20RA subunit alone
T1 sequence: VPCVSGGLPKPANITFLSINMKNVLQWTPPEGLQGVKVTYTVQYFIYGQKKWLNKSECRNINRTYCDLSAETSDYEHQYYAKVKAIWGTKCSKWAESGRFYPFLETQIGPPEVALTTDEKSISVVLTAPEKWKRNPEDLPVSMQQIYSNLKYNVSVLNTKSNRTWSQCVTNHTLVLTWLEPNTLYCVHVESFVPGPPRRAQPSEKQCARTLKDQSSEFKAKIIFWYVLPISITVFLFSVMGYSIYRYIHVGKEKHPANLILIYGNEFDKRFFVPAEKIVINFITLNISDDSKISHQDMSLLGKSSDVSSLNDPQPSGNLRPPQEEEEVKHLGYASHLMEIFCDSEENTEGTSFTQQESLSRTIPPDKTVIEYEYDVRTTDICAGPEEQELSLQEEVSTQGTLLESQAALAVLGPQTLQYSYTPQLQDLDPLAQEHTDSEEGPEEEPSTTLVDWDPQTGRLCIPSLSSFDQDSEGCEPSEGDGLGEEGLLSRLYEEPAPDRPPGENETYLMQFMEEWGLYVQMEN
Method: (§1) The specificity and affinity of IL-20 for its receptor was determined using BHK cells stably transfected with IL-20RA, IL-20RB or both receptor subunits. […] Binding of ¹²⁵I-labeled IL-20 was eliminated in the presence of 100-fold excess of unlabeled IL-20 but not with 100-fold excess of the unrelated cytokine, IL-21.

IL-20RB = target: T2, IL-20RB (human, UniProt Q6UXL0 30-311); assay: as above
T2 construct: Expressed alone on stably transfected BHK cells; also called IL-20RB subunit alone
T2 sequence: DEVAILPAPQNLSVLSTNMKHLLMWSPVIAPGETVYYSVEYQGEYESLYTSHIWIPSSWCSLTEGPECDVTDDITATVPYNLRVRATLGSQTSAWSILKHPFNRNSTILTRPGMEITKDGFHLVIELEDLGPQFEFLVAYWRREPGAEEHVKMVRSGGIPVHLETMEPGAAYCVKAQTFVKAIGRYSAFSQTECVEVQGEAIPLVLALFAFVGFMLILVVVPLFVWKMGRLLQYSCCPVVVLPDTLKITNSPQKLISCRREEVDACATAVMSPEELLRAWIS
Method: as §1

[1] = target: T3, IL-20RA/IL-20RB heterodimeric receptor (human, UniProt Q9UHF4 30-553; Q6UXL0 30-311); assay: 125I-labeled IL-20 binding on BHK cells expressing IL-20RA and IL-20RB
T3 construct: Both subunits were co-expressed on transfected COS, BHK or BaF3 cells, or were endogenous on human HaCaT keratinocytes; also called IL-20RB/IL-20RA heterodimer; IL-20 receptor
T3 sequence 1: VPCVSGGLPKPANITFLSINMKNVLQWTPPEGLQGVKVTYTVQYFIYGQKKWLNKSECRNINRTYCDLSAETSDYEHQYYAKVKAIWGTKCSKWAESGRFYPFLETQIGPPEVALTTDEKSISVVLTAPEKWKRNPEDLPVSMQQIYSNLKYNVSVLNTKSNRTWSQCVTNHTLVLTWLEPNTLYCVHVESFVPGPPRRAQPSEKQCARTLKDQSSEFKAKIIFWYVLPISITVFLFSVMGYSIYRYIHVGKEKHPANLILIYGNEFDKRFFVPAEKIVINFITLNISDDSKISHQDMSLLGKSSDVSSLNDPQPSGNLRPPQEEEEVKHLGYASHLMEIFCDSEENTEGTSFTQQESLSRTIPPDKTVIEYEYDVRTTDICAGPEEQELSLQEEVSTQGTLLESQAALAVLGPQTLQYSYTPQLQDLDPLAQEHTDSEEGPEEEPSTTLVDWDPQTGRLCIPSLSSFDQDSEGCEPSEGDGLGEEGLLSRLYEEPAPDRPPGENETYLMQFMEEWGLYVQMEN
T3 sequence 2: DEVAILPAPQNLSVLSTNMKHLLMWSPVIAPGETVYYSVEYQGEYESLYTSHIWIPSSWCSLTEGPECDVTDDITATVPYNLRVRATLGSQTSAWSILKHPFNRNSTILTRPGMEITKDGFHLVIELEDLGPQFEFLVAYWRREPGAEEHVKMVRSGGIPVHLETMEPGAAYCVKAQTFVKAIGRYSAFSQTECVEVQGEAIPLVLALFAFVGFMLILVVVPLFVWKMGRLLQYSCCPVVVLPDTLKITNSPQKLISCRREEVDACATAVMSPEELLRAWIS
Method: as §1

B1: IL-20 (ligand, UniProt Q9NYY1 25-176, looked up)
chain: LKTLNLGSCVIATNLQEIRNGFSEIRGSVQAKDGNIDIRILRRTESLQDTKPANRCCLLRHLLRLYLDRVFKNYQTPDHYTLRKISSLANSFLTIKKDLRLCHAHMTCHCGEEAMKKYSQILSHFEKLEPQAAVVKALGELDILLQWMEETE
notes: also called biotin-labeled IL-20 protein; biotinylated IL-20
In the case of B1, the binding result (IL-20RA) is reported as “no binding”, the binding result (IL-20RB) is reported as “no binding” and the Kd [1] is reported as about 1.5 nM.
